Reference: paper PMC6962051, “Auxiliary-assisted chemical ubiquitylation of NEMO and linear extension by HOIP” (Communications chemistry, 2019)

Key:
[1] = molecular target: the molecule itself; assay: circular dichroism thermal melting at different concentrations; PBS pH 7.4; ellipticity at 222 nm, 2-80 °C, 2 °C/min; melting temperature rises with the concentration of NEMO_(CoZi) (20.2, 24.9, 28.5 °C); monomer to coiled-coil dimer
linear di-Ubiquitin = molecular target: T1, linear di-Ubiquitin (UniProt P0CG47 1-76; P0CG47 1-76); assay: BLI; biotinylated NEMO_(CoZi) or NEMO_(CoZi)-Ub immobilised on streptavidin biosensors (~2 ug/mL); di-Ub at 2-225 uM; 25 °C; 100 s association, 100 s dissociation; 10 mM HEPES pH 7.4, 150 mM NaCl, 3 mM EDTA, 0.005% Tween-20; equilibrium analysis of response against di-Ub concentration; conditions: both partners purified
T1 construct: ubiquitin (1-76), distal unit of the linear (M1-linked) dimer; ubiquitin (1-76), proximal unit, its Met1 joined by a peptide bond to Gly76 of the first unit; also called linear diubiquitin chains

B1: synthetic biotinylated mouse NEMO CoZi domain (NEMO_(CoZi)), 83-mer (domain or fragment)
chain: EDLRQQLQQAEEALVAKQELIDKLKEEAEQHKIVMETVPVLKAQADIYKADFQAERHAREKLVEKKEYLQEQLEQLQREFNKL
modifications: biotin on the N-terminus; C-terminal amide
notes: CoZi (coiled-coil and leucine zipper) domain of mouse NEMO, 83-mer; The unmodified peptide is the same 83-mer after Alloc removal, without the auxiliary; also called unmodified NEMO_(CoZi); source: synthetic peptide (solid-phase synthesis in a single piece, HPLC purified); not shown: biotin, N-terminal, kept
binding result [1]: binds
Kd (linear di-Ubiquitin): 25 µM
